Results on one substance are retold here after patent publication EP2078531A2.

The assay deals with T1, Human recombinant platelet factor-4 (human) (UniProt P02776).
T1 sequence (looked up): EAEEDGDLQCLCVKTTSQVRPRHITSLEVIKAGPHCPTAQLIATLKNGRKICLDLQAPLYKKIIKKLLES
The assay can be described thus: PF4-sepharose affinity column, HUVEC conditioned medium.

Values joined by “and” are separate entries in the source; they are usually repeats but may differ in a detail not shown here. Equal entries are not always repeated.

With “LOR-1 (from UniProt Q9Y4K0 26-774) (enzyme)”, the NaCl concentration at elution from the PF4 column is 0.4 M NaCl and 0.5 M NaCl.
